Binding result and Kd data for three molecules are collected here from paper PMC12742838, “Discovery and structural investigation of Varicella-Zoster virus gE-neutralizing antibodies isolated from a convalescent patient” (Protein & Cell, 2025).

For assay [1], the target named is T1, Varicella-zoster virus glycoprotein E (gE), recombinant protein, tag not told for these experiments (Varicella-zoster virus, UniProt P09259).
T1 construct: glycoprotein E (gE) of Varicella-zoster virus; Methods are in the Supplementary Materials; also called gE protein
In words: cryo-EM structure; ternary complex Fab WLL-1/Fab WLL-28/gE, resolved at 3.36 Å; only the gI-binding domain of gE is seen. Particulars: both partners purified.

Assay [2] has as its target T2, recombinant soluble insulin-degrading enzyme (rIDE, residues 42-1,019) (UniProt P14735 42-1019).
T2 construct: insulin-degrading enzyme (IDE), cellular receptor of VZV gE, residues 42-1,019; Tags and host are probably in the Supplementary Materials; also called rIDE receptor protein; source: recombinant, purified
Put plainly: SPR; dissociation constant of gE to rIDE. Particulars: both partners purified. (In general: SPR reads the build-up and loss of mass on a sensor chip optically.)

B1: Fab WLL-28 (Fab, V domains shown)
VH: EVQLVQSGAEVKKPGEPLKISCKASGYNFANFWVGWVRQMPGRGLEWMGVIFPADSDTRYSPSFQGQVIISADKSTNTAYLQWSSLKASDSAMYYCARHVRGSLWGGGGYWGQGTLVTVSS
VL: EIVMTQSPSTLSVSPGEGATLSCRASQSVNNDLAWYQQKPGQAPRLLINGASTRATGIPARFTGSGSGTEFTLTISSLQPEDFAVYFCQQYNDWPRTFGQGTKVEIK
Take B1: the binding result in assay [1] is “binds”.

B2: Fab WLL-1 (Fab, V domains shown)
VH: QITLKESGPTLVKPTQTLTLTCTFSGFSLTNTEMTVGWIRRPPGKALEWLALIYWDDDKRYSPSLRSRLTITKDTSKNQVVLKMTNMDPVDTATYYCARLSLRLLTFDYWGQGTLVTVSS
VL: SYVVTQPPSVSVAPRQTARITCGGSNIGSKSVHWHQQKPGQAPVLVVYDDSDRPSGIPERFSGSNSGNTATLTITRVEAGDEADYYCQVWDSSGDHPLFGGGTKLTVL
For B2, the binding result in assay [1] is recorded as “binds”.

B3: Varicella-zoster virus glycoprotein E (gE), recombinant protein, tag not told for these experiments (natural protein)
chain: SVLRYDDFHTDEDKLDTNSVYEPYYHSDHAESSWVNRGESSRKAYDHNSPYIWPRNDYDGFLENAHEHHGVYNQGRGIDSGERLMQPTQMSAQEDLGDDTGIHVIPTLNGDDRHKIVNVDQRQYGDVFKGDLNPKPQGQRLIEVSVEENHPFTLRAPIQRIYGVRYTETWSFLPSLTCTGDAAPAIQHICLKHTTCFQDVVVDVDCAENTKEDQLAEISYRFQGKKEADQPWIVVNTSTLFDELELDPPEIEPGVLKVLRTEKQYLGVYIWNMRGSDGTSTYATFLVTWKGDEKTRNPTPAVTPQPRGAEFHMWNYHSHVFSVGDTFSLAMHLQYKIHEAPFDLLLEWLYVPIDPTCQPMRLYSTCLYHPNAPQCLSHMNSGCTFTSPHLAQRVASTVYQNCEHADNYTAYCLGISHMEPSFGLILHDGGTTLKFVDTPESLSGLYVFVVYFNGHVEAVAYTVVSTVDHFVNAIEERGFPPTAGQPPATTKPKEITPVNPGTSPLLR
notes: glycoprotein E (gE) of Varicella-zoster virus; Methods are in the Supplementary Materials; also called gE protein
For orientation: Kd means the equilibrium constant for the complex coming apart. On to B3, for which the Kd in assay [2] is ~10 nM.
